This passage reports EC50 results from patent US20100260668A1 (published 2010).

The experiment concerns the target VEGF (VEGF 1-165 aa, R&D Systems 293-VE-010) (UniProt P15692 27-191). Nature of the experiment: Direct bind ELISA, VEGF coated on plate.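 Further: ELISA screening of antibodies for binding to the plate-coated target antigen.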

Chain of VEGF (VEGF 1-165 aa, R&D Systems 293-VE-010) (P15692 other isoform, or with tags, fused parts or gaps limits assumed): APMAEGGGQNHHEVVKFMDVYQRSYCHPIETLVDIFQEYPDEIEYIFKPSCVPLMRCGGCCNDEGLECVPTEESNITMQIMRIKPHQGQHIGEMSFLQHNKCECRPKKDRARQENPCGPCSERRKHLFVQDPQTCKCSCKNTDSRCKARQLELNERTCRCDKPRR
Description: Enzyme Linked Immunosorbent Assays to screen for antibodies that bind a desired target antigen were performed as follows. […] Plates were washed four times with PBS containing 0.02% Tween 20. Plates were blocked by the addition of 300 μL/well blocking solution (non-fat dry milk powder, various retail suppliers, diluted to 2% in PBS) for ½ hour at room temperature. Plates were washed four times after blocking with PBS containing 0.02% Tween 20.
Plates were washed 4 times with PBS containing 0.02% Tween 20.

B1: DVD468 (bispecific antibody, IgG1)
VH: EVQLVESGGGLVQPGGSLRLSCAASGFTINASWIHWVRQAPGKGLEWVGAIYPYSGYTNYADSVKGRFTISADTSKNTAYLQMNSLRAEDTAVYYCARWGHSTSPWAMDYWGQGTLVTVSSASTKGPEVQLVESGGGLVQPGGSLRLSCAASGFTFTDNWISWVRQAPGKGLEWVGYISPNSGFTYYADSVKGRFTISADTSKNTAYLQMNSLRAEDTAVYYCARDNFGGYFDYWGQGTLVTVSS
VL: DIQMTQSPSSLSASVGDRVTITCRASQVIRRSLAWYQQKPGKAPKLLIYAASNLASGVPSRFSGSGSGTDFTLTISSLQPEDFATYYCQQSNTSPLTFGQGTKVEIKRTVAAPDIQMTQSPSSLSASVGDRVTITCRASQDVSTAVAWYQQKPGKAPKLLIYSASFLYSGVPSRFSGSGSGTDFTLTISSLQPEDFATTYYCQQSYTGTVTFGQGTKVEIKR
notes: DVD-Ig, outer AB071 / inner AB015; HC linker short, LC linker short; also called DVD468H; DVD468L
B1: the EC50 is 25.6 nM.

B2: DVD467 (bispecific antibody, IgG1)
VH: EVQLVESGGGLVQPGGSLRLSCAASGFTFTDNWISWVRQAPGKGLEWVGYISPNSGFTYYADSVKGRFTISADTSKNTAYLQMNSLRAEDTAVYYCARDNFGGYFDYWGQGTLVTVSSASTKGPEVQLVESGGGLVQPGGSLRLSCAASGFTINASWIHWVRQAPGKGLEWVGAIYPYSGYTNYADSVKGRFTISADTSKNTAYLQMNSLRAEDTAVYYCARWGHSTSPWAMDYWGQGTLVTVSS
VL: DIQMTQSPSSLSASVGDRVTITCRASQDVSTAVAWYQQKPGKAPKLLIYSASFLYSGVPSRFSGSGSGTDFTLTISSLQPEDFATTYYCQQSYTGTVTFGQGTKVEIKRTVAAPDIQMTQSPSSLSASVGDRVTITCRASQVIRRSLAWYQQKPGKAPKLLIYAASNLASGVPSRFSGSGSGTDFTLTISSLQPEDFATYYCQQSNTSPLTFGQGTKVEIKR
notes: DVD-Ig, outer AB015 / inner AB071; HC linker short, LC linker short; also called DVD467H; DVD467L
As for B2, the EC50 was determined as 1810 nM.

B3: DVD474 (bispecific antibody, IgG1)
VH: EVQLVESGGGLVQPGGSLRLSCAASGFTINASWIHWVRQAPGKGLEWVGAIYPYSGYTNYADSVKGRFTISADTSKNTAYLQMNSLRAEDTAVYYCARWGHSTSPWAMDYWGQGTLVTVSSASTKGPSVFPLAPEVQLVESGGGLVQPGGSLRLSCAASGFTFTDNWISWVRQAPGKGLEWVGYISPNSGFTYYADSVKGRFTISADTSKNTAYLQMNSLRAEDTAVYYCARDNFGGYFDYWGQGTLVTVSS
VL: DIQMTQSPSSLSASVGDRVTITCRASQVIRRSLAWYQQKPGKAPKLLIYAASNLASGVPSRFSGSGSGTDFTLTISSLQPEDFATYYCQQSNTSPLTFGQGTKVEIKRTVAAPSVFIFPPDIQMTQSPSSLSASVGDRVTITCRASQDVSTAVAWYQQKPGKAPKLLIYSASFLYSGVPSRFSGSGSGTDFTLTISSLQPEDFATTYYCQQSYTGTVTFGQGTKVEIKR
notes: DVD-Ig, outer AB071 / inner AB015; HC linker long, LC linker long; also called DVD474H; DVD474L
In turn, B3 showed an EC50 of 17.9 nM.

B4: DVD473 (bispecific antibody, IgG1)
VH: EVQLVESGGGLVQPGGSLRLSCAASGFTFTDNWISWVRQAPGKGLEWVGYISPNSGFTYYADSVKGRFTISADTSKNTAYLQMNSLRAEDTAVYYCARDNFGGYFDYWGQGTLVTVSSASTKGPSVFPLAPEVQLVESGGGLVQPGGSLRLSCAASGFTINASWIHWVRQAPGKGLEWVGAIYPYSGYTNYADSVKGRFTISADTSKNTAYLQMNSLRAEDTAVYYCARWGHSTSPWAMDYWGQGTLVTVSS
VL: DIQMTQSPSSLSASVGDRVTITCRASQDVSTAVAWYQQKPGKAPKLLIYSASFLYSGVPSRFSGSGSGTDFTLTISSLQPEDFATTYYCQQSYTGTVTFGQGTKVEIKRTVAAPSVFIFPPDIQMTQSPSSLSASVGDRVTITCRASQVIRRSLAWYQQKPGKAPKLLIYAASNLASGVPSRFSGSGSGTDFTLTISSLQPEDFATYYCQQSNTSPLTFGQGTKVEIKR
notes: DVD-Ig, outer AB015 / inner AB071; HC linker long, LC linker long; also called DVD473H; DVD473L
B4: the EC50 came out at 388 nM.
